Measurements as given in article PMC5385343, “Crystal Structure of Glyceraldehyde-3-Phosphate Dehydrogenase from the Gram-Positive Bacterial Pathogen A. vaginae, an Immunoevasive Factor that Interacts with the Human C5a Anaphylatoxin” (Frontiers in Microbiology, 2017).

Columns and labels:
AvGAPDH = target: T1, AvGAPDH (Fannyhessea vaginae, UniProt F1T6A5); experiment: X-ray crystal structure, […] Å; format: binding; settings: crystallised with 0.6 mM NAD+, 0.1 M sodium citrate pH 5.5, 20% PEG 3000; one NAD+ per protomer, active site
T1 construct: gene gap; full-length, 356 residues, N-terminal His6 tag and TEV site (tag removal not described), pET21b, E. coli Rosetta(DE3)pLysS; homotetramer

O=CC(O)COP(=O)(O)O = experiment: purified protein; settings: 40 mM Tris-HCl pH 8.5, 2 mM EDTA, 25 °C, 0.1 μM enzyme, G3P varied 0.6-15 mM, co-substrates NAD+ and Pi, fixed concentrations not given
[1] = tested on: NC(=O)c1ccc[n+]([C@@H]2O[C@H](COP(=O)(O)OP(=O)(O)OC[C@H]3O[C@@H](n4cnc5c(N)ncnc54)[C@H](O)[C@@H]3O)[C@@H](O)[C@H]2O)c1; experiment: purified protein; settings: 40 mM Tris-HCl pH 8.5, 2 mM EDTA, 25 °C, 0.1 μM enzyme, NAD+ varied 0.03-2 mM, co-substrates G3P and Pi, fixed concentrations not given, varied: cofactor
crystal structure = target: the molecule itself; experiment: crystal structure

Molecule: NC(=O)c1ccc[n+]([C@@H]2O[C@H](COP(=O)(O)OP(=O)(O)OC[C@H]3O[C@@H](n4cnc5c(N)ncnc54)[C@H](O)[C@@H]3O)[C@@H](O)[C@H]2O)c1 [NAD^+]
- X-ray crystal structure, 2.19 Å (AvGAPDH): NAD^+ molecules are tightly bound in an elongated cleft in all four protomers

Molecule: AvGAPDH (Fannyhessea vaginae DSM 15829)
- Km (O=CC(O)COP(=O)(O)O): 2600 ± 500 µM
- Vmax (O=CC(O)COP(=O)(O)O): 342000 µM/min/mg
- kcat (O=CC(O)COP(=O)(O)O): 57 ± 6 s⁻¹
- kcat/Km (O=CC(O)COP(=O)(O)O): 22000 ± 5000 M⁻¹ s⁻¹
- Km [1]: 80 ± 30 µM
- Vmax [1]: 186000 µM/min/mg
- kcat [1]: 31 ± 3 s⁻¹
- kcat/Km [1]: 384000 ± 150000 M⁻¹ s⁻¹

B1: D-glyceraldehyde-3-phosphate dehydrogenase from Atopobium vaginae, full-length, hexahistidine-tagged (enzyme)
chain: MKEDRLPANLAKGESMAVKVAINGFGRIGRLAFRQMFGHEGSEIVAINDLTDPKMLANLLKYDSSQGNYARNHSVVAGEDSITVDGKTIKIYKEADAHNLPWGELNVDVVLECTGFYTSKAKAQAHIDAGAKKVVISAPAGKDLPTIVYNVNHEILTKDDNIISAASCTTNCLAPMAKALNDFAPIQSGIMSTIHAFTGDQMVLDGPHRKGDLRRARAAAINIVPNSTGAAKAIGLVIPELNGKLIGSAQRVPVPTGSTTLLFAVVKSDKEITVDSINAAMKAASDPETFGYNEDPIVSSDIIGMTYGSLFDATQTMVQDLGNGLYQVEVVSWYDNENSYTSQMVRTIKYFEKFVA
notes: also called AvGAPDH; GAPDH from A. vaginae; source: E. coli Rossetta(DE3)pLysS, purified (HisTrap, Superdex 200)
- stoichiometry N (crystal structure): 4
